# B1: Speckle-type POZ protein (Homo sapiens), O43791 (parent)
# chain: MSRVPSPPPPAEMSSGPVAESWCYTQIKVVKFSYMWTINNFSFCREEMGEVIKSSTFSSGANDKLKWCLRVNPKGLDEESKDYLSLYLLLVSCPKSEVRAKFKFSILNAKGEETKAMESQRAYRFVQGKDWGFKKFIRRDFLLDEANGLLPDDKLTLFCEVSVVQDSVNISGQNTMNMVKVPECRLADELGGLWENSRFTDCCLCVAGQEFQAHKAILAARSPVFSAMFEHEMEESKKNRVEINDVEPEVFKEMMCFIYTGKAPNLDKMADDLLAAADKYALERLKVMCEDALCSNLSVENAAEILILADLHSADQLKTQAVDFINYHASDVLETSGWKSMVVSHPHLVAEAYRSLASAQCPFLGPPRKRLKQS
# Variants of: B1
# Details: with brd4_human BRD4, O60885
row,effect of a mutation on the interaction,Variant
1,disrupting interaction strength,F133V

# Variants of: B1
# Details: with ncoa3_human NCOA3, Q9Y6Q9
row,effect of a mutation on the interaction,Variant
1,disrupting interaction strength,F133V

# Variants of: B1
# Details: with jun_human JUN
row,effect of a mutation on the interaction,Variant
1,with no effect,F133V

# Variants of: B1
# Details: with akt1_human AKT1, P31749
row,effect of a mutation on the interaction,Variant
1,with no effect,F133V

# Variants of: B1
# Details: with alk_human ALK
row,effect of a mutation on the interaction,Variant
1,with no effect,F133V

# Variants of: B1
# Details: with aph1a_human APH1A
row,effect of a mutation on the interaction,Variant
1,with no effect,F133V

# Variants of: B1
# Details: with arnt_human ARNT
row,effect of a mutation on the interaction,Variant
1,with no effect,F133V

# Variants of: B1
# Details: with asxl2_human ASXL2, Q76L83
row,effect of a mutation on the interaction,Variant
1,with no effect,F133V

# Variants of: B1
# Details: with bakor_human ATG14, Q6ZNE5
row,effect of a mutation on the interaction,Variant
1,with no effect,F133V

# Variants of: B1
# Details: with atm_human ATM
row,effect of a mutation on the interaction,Variant
1,with no effect,F133V

# Variants of: B1
# Details: with atpb_human ATP5F1B
row,effect of a mutation on the interaction,Variant
1,with no effect,F133V

# Variants of: B1
# Details: with aurkb_human AURKB
row,effect of a mutation on the interaction,Variant
1,with no effect,F133V

# Variants of: B1
# Details: with axin2_human AXIN2, Q9Y2T1
row,effect of a mutation on the interaction,Variant
1,with no effect,F133V

# Variants of: B1
# Details: with ufo_human AXL
row,effect of a mutation on the interaction,Variant
1,with no effect,F133V

# Variants of: B1
# Details: with za2g_human AZGP1, P25311
row,effect of a mutation on the interaction,Variant
1,with no effect,F133V

# Variants of: B1
# Details: with b2mg_human B2M
row,effect of a mutation on the interaction,Variant
1,with no effect,F133V

# Variants of: B1
# Details: with bap1_human BAP1, Q92560
row,effect of a mutation on the interaction,Variant
1,with no effect,F133V

# Variants of: B1
# Details: with bcor_human BCOR
row,effect of a mutation on the interaction,Variant
1,with no effect,F133V

# Variants of: B1
# Details: with birc2_human BIRC2, Q13490
row,effect of a mutation on the interaction,Variant
1,with no effect,F133V

# Variants of: B1
# Details: with brd4_human BRD4, O60885
# Remark: another data set of the same source
row,effect of a mutation on the interaction,Variant
1,with no effect,F133V

# Variants of: B1
# Details: with baba2_human BABAM2, Q9NXR7
row,effect of a mutation on the interaction,Variant
1,with no effect,F133V

# Variants of: B1
# Details: with btg1_human BTG1, P62324
row,effect of a mutation on the interaction,Variant
1,with no effect,F133V

# Variants of: B1
# Details: with btk_human BTK
row,effect of a mutation on the interaction,Variant
1,with no effect,F133V

# Variants of: B1
# Details: with ccnd1_human CCND1, P24385
row,effect of a mutation on the interaction,Variant
1,with no effect,F133V

# Variants of: B1
# Details: with ccnd2_human CCND2, P30279
row,effect of a mutation on the interaction,Variant
1,with no effect,F133V

# Variants of: B1
# Details: with ccnd3_human CCND3, P30281
row,effect of a mutation on the interaction,Variant
1,with no effect,F133V

# Variants of: B1
# Details: with cd44_human CD44, P16070
row,effect of a mutation on the interaction,Variant
1,with no effect,F133V

# Variants of: B1
# Details: with cd79b_human CD79B
row,effect of a mutation on the interaction,Variant
1,with no effect,F133V

# Variants of: B1
# Details: with cdc73_human CDC73, Q6P1J9
row,effect of a mutation on the interaction,Variant
1,with no effect,F133V

# Variants of: B1
# Details: with cdk4_human CDK4, P11802
row,effect of a mutation on the interaction,Variant
1,with no effect,F133V

# Variants of: B1
# Details: with cdk6_human CDK6, Q00534
row,effect of a mutation on the interaction,Variant
1,with no effect,F133V

# Variants of: B1
# Details: with cdn2c_human CDKN2C
row,effect of a mutation on the interaction,Variant
1,with no effect,F133V

# Variants of: B1
# Details: with chd1l_human CHD1L
row,effect of a mutation on the interaction,Variant
1,with no effect,F133V

# Variants of: B1
# Details: with chd2_human CHD2, O14647
row,effect of a mutation on the interaction,Variant
1,with no effect,F133V

# Variants of: B1
# Details: with ch3l1_human CHI3L1, P36222
row,effect of a mutation on the interaction,Variant
1,with no effect,F133V

# Variants of: B1
# Details: with cul3_human CUL3, Q13618
row,effect of a mutation on the interaction,Variant
1,with no effect,F133V

# Variants of: B1
# Details: with cul4b_human CUL4B
row,effect of a mutation on the interaction,Variant
1,with no effect,F133V

# Variants of: B1
# Details: with daxx_human DAXX
row,effect of a mutation on the interaction,Variant
1,with no effect,F133V

# Variants of: B1
# Details: with ddx5_human DDX5, P17844
row,effect of a mutation on the interaction,Variant
1,with no effect,F133V

# Variants of: B1
# Details: with dll3_human DLL3, Q9NYJ7
row,effect of a mutation on the interaction,Variant
1,with no effect,F133V

# Variants of: B1
# Details: with duox2_human DUOX2, Q9NRD8
row,effect of a mutation on the interaction,Variant
1,with no effect,F133V

# Variants of: B1
# Details: with e2f2_human E2F2, Q14209
row,effect of a mutation on the interaction,Variant
1,with no effect,F133V

# Variants of: B1
# Details: with e2f3_human E2F3, O00716
row,effect of a mutation on the interaction,Variant
1,with no effect,F133V

# Variants of: B1
# Details: with e2f5_human E2F5, Q15329
row,effect of a mutation on the interaction,Variant
1,with no effect,F133V

# Variants of: B1
# Details: with e2f6_human E2F6, O75461
row,effect of a mutation on the interaction,Variant
1,with no effect,F133V

# Variants of: B1
# Details: with e2f8_human E2F8, A0AVK6
row,effect of a mutation on the interaction,Variant
1,with no effect,F133V

# Variants of: B1
# Details: with if4e_human EIF4E
row,effect of a mutation on the interaction,Variant
1,with no effect,F133V

# Variants of: B1
# Details: with epha7_human EPHA7, Q15375
row,effect of a mutation on the interaction,Variant
1,with no effect,F133V

# Variants of: B1
# Details: with ephb1_human EPHB1, P54762
row,effect of a mutation on the interaction,Variant
1,with no effect,F133V

# Variants of: B1
# Details: with erbb3_human ERBB3, P21860
row,effect of a mutation on the interaction,Variant
1,with no effect,F133V

# Variants of: B1
# Details: with erbb4_human ERBB4, Q15303
row,effect of a mutation on the interaction,Variant
1,with no effect,F133V

# Variants of: B1
# Details: with esr1_human ESR1, P03372
row,effect of a mutation on the interaction,Variant
1,with no effect,F133V

# Variants of: B1
# Details: with etv1_human ETV1, P50549
row,effect of a mutation on the interaction,Variant
1,with no effect,F133V

# Variants of: B1
# Details: with ezh1_human EZH1, Q92800
row,effect of a mutation on the interaction,Variant
1,with no effect,F133V

# Variants of: B1
# Details: with ezh2_human EZH2, Q15910
row,effect of a mutation on the interaction,Variant
1,with no effect,F133V

# Variants of: B1
# Details: with facd2_human FANCD2, Q9BXW9
row,effect of a mutation on the interaction,Variant
1,with no effect,F133V

# Variants of: B1
# Details: with fgf19_human FGF19, O95750
row,effect of a mutation on the interaction,Variant
1,with no effect,F133V

# Variants of: B1
# Details: with fgfp1_human FGFBP1, Q14512
row,effect of a mutation on the interaction,Variant
1,with no effect,F133V

# Variants of: B1
# Details: with fgfr4_human FGFR4, P22455
row,effect of a mutation on the interaction,Variant
1,with no effect,F133V

# Variants of: B1
# Details: with fumh_human FH
row,effect of a mutation on the interaction,Variant
1,with no effect,F133V

# Reference: IntAct's records for PubMed 35512704
